Source: the supplement of paper PMC11246515
± gives the standard deviation of the averaged measurements.

Assay: total protein half-life in vivo (active degradation + dilution); higher = more stable protein
[1] = E. coli NCM3722 delta-clpP delta-lon delta-hslV, growth: N-lim chemostat, doubling time 6 h
[2] = E. coli NCM3722 delta-clpP, growth: N-lim chemostat, doubling time 6 h
[3] = E. coli NCM3722 delta-hslV, growth: N-lim chemostat, doubling time 6 h
[4] = E. coli NCM3722 delta-smpB, growth: N-lim chemostat, doubling time 6 h
[5] = wild type E. coli NCM3722, growth: C-lim chemostat, doubling time 3 h
[6] = wild type E. coli NCM3722, growth: C-lim chemostat, doubling time 6 h
[7] = wild type E. coli NCM3722, growth: C-lim chemostat, doubling time 12 h
[8] = wild type E. coli NCM3722, growth: N-lim chemostat, doubling time 6 h
[9] = wild type E. coli NCM3722, growth: N-lim chemostat, doubling time 12 h
[10] = wild type E. coli NCM3722, growth: P-lim chemostat, doubling time 6 h
[11] = wild type E. coli NCM3722, growth: P-lim chemostat, doubling time 12 h
[12] = E. coli NCM3722 delta-lon, growth: N-lim chemostat, doubling time 6 h

Row | Sequence | total protein half-life in vivo [1] | total protein half-life in vivo [2] | total protein half-life in vivo [3] | total protein half-life in vivo [4] | total protein half-life in vivo [5] | total protein half-life in vivo [6] | total protein half-life in vivo [7] | total protein half-life in vivo [8] | total protein half-life in vivo [9] | total protein half-life in vivo [10] | total protein half-life in vivo [11] | total protein half-life in vivo [12]
1 | MMNDGKQQSTFLFHDYETFGTHPALDRPAQFAAIRTDSEFNVIGEPEVFYCKPADDYLPQPGAVLITGITPQEARAKGENEAAFAARIHSLFTVPKTCILGYNNVRFDDEVTRNIFYRNFYDPYAWSWQHDNSRWDLLDVMRACYALRPEGINWPENDDGLPSFRLEHLTKANGIEHSNAHDAMADVYATIAMAKLVKTRQPRLFDYLFTHRNKHKLMALIDVPQMKPLVHVSGMFGAWRGNTSWVAPLAWHPENRNAVIMVDLAGDISPLLELDSDTLRERLYTAKTDLGDNAAVPVKLVHINKCPVLAQANTLRPEDADRLGINRQHCLDNLKILRENPQVREKVVAIFAEAEPFTPSDNVDAQLYNGFFSDADRAAMKIVLETEPRNLPALDITFVDKRIEKLLFNYRARNFPGTLDYAEQQRWLEHRRQVFTPEFLQGYADELQMLVQQYADDKEKVALLKALWQYAEEIV | 5.14 ± 0.17 h | 4.99 ± 0.24 h | 4.41 ± 0.22 h | 3.9722 ± 0.0028 h | 3.12 ± 0.044 h | 5.87 ± 0.28 h | 9.97 ± 1.4 h | 4.297 ± 0.027 h | 6.577 ± 0.033 h | 6.73 ± 0.97 h | 12.3 ± 0.74 h | 
2 | MNSHNITNESLALALMLVVVAILISHKEKLALEKDILWSVGRAIIQLIIVGYVLKYIFSVDDASLTLLMVLFICFNAAWNAQKRSKYIAKAFISSFIAITVGAGITLAVLILSGSIEFIPMQVIPIAGMIAGNAMVAVGLCYNNLGQRVISEQQQIQEKLSLGATPKQASAILIRDSIRAALIPTVDSAKTVGLVSLPGMMSGLIFAGIDPVKAIKYQIMVTFMLLSTASLSTIIACYLTYRKFYNSRHQLVVTQLKKK |  | 6.44 ± 0.17 h | 6 ± 0.27 h | 5.86 ± 0.42 h | 3.19 ± 0.54 h | 5.5591 ± 0.0054 h | 9.93 ± 4.5 h | 5.87 ± 0.81 h | 8.27 ± 3 h | 6.28 ± 0.1 h |  | 5.893 ± 0.034 h
3 | MNFHHLAYWQDKALSLAIENRLFINGEYTAAAENETFETVDPVTQAPLAKIARGKSVDIDRAMSAARGVFERGDWSLSSPAKRKAVLNKLADLMEAHAEELALLETLDTGKPIRHSLRDDIPGAARAIRWYAEAIDKVYGEVATTSSHELAMIVREPVGVIAAIVPWNFPLLLTCWKLGPALAAGNSVILKPSEKSPLSAIRLAGLAKEAGLPDGVLNVVTGFGHEAGQALSRHNDIDAIAFTGSTRTGKQLLKDAGDSNMKRVWLEAGGKSANIVFADCPDLQQAASATAAGIFYNQGQVCIAGTRLLLEESIADEFLALLKQQAQNWQPGHPLDPATTMGTLIDCAHADSVHSFIREGESKGQLLLDGRNAGLAAAIGPTIFVDVDPNASLSREEIFGPVLVVTRFTSEEQALQLANDSQYGLGAAVWTRDLSRAHRMSRRLKAGSVFVNNYNDGDMTVPFGGYKQSGNGRDKSLHALEKFTELKTIWISLEA | 3.96 ± 0.66 h | > 8 h | 1.03 ± 0.13 h | 1.11 ± 0.082 h | 2.68 ± 0.027 h | 2.8 ± 0.14 h | 3.22 ± 0.67 h | 1.43 ± 0.29 h | 1.48 h | 4.1373 ± 0.0017 h | 6.22 ± 0.066 h | 
4 | MKYVDGFVVAVPADKKDAYREMAAKAAPLFKEFGALRIVECWASDVPDGKVTDFRMAVKAEENEEVVFSWIEYPSKEVRDAANQKMMSDPRMKEFGESMPFDGKRMIYGGFESIIDE [P0AAQ6] | 4.294 ± 0.022 h | 2.69 ± 0.41 h | 3.26 ± 1.4 h | 1.51 ± 0.073 h |  | 2.63 ± 0.71 h | 2.54 ± 0.65 h | 2.14 h | 2.62 ± 0.04 h | 3.082 ± 0.03 h | 6.13 ± 0.85 h | 3.82 ± 0.1 h
5 | MFDIGFSELLLVFIIGLVVLGPQRLPVAVKTVAGWIRALRSLATTVQNELTQELKLQEFQDSLKKVEKASLTNLTPELKASMDELRQAAESMKRSYVANDPEKASDEAHTIHNPVVKDNEAAHEGVTPAAAQTQASSPEQKPETTPEPVVKPAADAEPKTAAPSPSSSDKP | 4.29 ± 0.055 h | 5.27 ± 1.5 h | 5.04 ± 0.61 h | 4.49 ± 0.26 h | 2.57 ± 0.12 h | 4.41 ± 0.55 h | 7 ± 1.1 h | 4.65 ± 0.15 h | 8.87 ± 1.3 h | 4.27 ± 0.49 h | 7.92 ± 0.28 h | 3.92 ± 0.51 h
6 | MQTEQQRAVTRLCIQCGLFLLQHGAESALVDELSSRLGRALGMDSVESSISSNAIVLTTIKDGQCLTSTRKNHDRGINMHVVTEVQHIVILAEHHLLDYKGVEKRFSQIQPLRYPRWLVALMVGLSCACFCKLNNGGWDGAVITFFASTTAMYIRQLLAQRHLHPQINFCLTAFAATTISGLLLQLPTFSNTPTIAMAASVLLLVPGFPLINAVADMFKGHINTGLARWAIASLLTLATCVGVVMALTIWGLRGWV [P0ADD5] |  |  |  |  |  |  | 15.1 h |  |  | 6.86 h |  | 
7 | MTEKKYIVALDQGTTSSRAVVMDHDANIISVSQREFEQIYPKPGWVEHDPMEIWATQSSTLVEVLAKADISSDQIAAIGITNQRETTIVWEKETGKPIYNAIVWQCRRTAEICEHLKRDGLEDYIRSNTGLVIDPYFSGTKVKWILDHVEGSRERARRGELLFGTVDTWLIWKMTQGRVHVTDYTNASRTMLFNIHTLDWDDKMLEVLDIPREMLPEVRRSSEVYGQTNIGGKGGTRIPISGIAGDQQAALFGQLCVKEGMAKNTYGTGCFMLMNTGEKAVKSENGLLTTIACGPTGEVNYALEGAVFMAGASIQWLRDEMKLINDAYDSEYFATKVQNTNGVYVVPAFTGLGAPYWDPYARGAIFGLTRGVNANHIIRATLESIAYQTRDVLEAMQADSGIRLHALRVDGGAVANNFLMQFQSDILGTRVERPEVREVTALGAAYLAGLAVGFWQNLDELQEKAVIEREFRPGIETTERNYRYAGWKKAVKRAMAWEEHDE [P0A6F3] |  | 6.74 ± 0.14 h | 6.32 ± 0.39 h | 5.64 ± 0.067 h | 3.28 ± 0.085 h | 5.398 ± 0.033 h | 9.61 ± 1.5 h | 5.983 ± 0.059 h | 12.7 ± 0.32 h | 6.31 ± 0.66 h | 13 ± 0.85 h | 
8 | MSVFPESFLWGGALAANQSEGAFREGDKGLTTVDMIPHGEHRMAVKLGLEKRFQLRDDEFYPSHEATDFYHRYKEDIALMAEMGFKVFRTSIAWSRLFPQGDEITPNQQGIAFYRSVFEECKKYGIEPLVTLCHFDVPMHLVTEYGSWRNRKLVEFFSRYARTCFEAFDGLVKYWLTFNEINIMLHSPFSGAGLVFEEGENQDQVKYQAAHHQLVASALATKIAHEVNPQNQVGCMLAGGNFYPYSCKPEDVWAALEKDRENLFFIDVQARGTYPAYSARVFREKGVTINKAPGDDEILKNTVDFVSFSYYASRCASAEMNANNSSAANVVKSLRNPYLQVSDWGWGIDPLGLRITMNMMYDRYQKPLFLVENGLGAKDEFAANGEINDDYRISYLREHIRAMGEAIADGIPLMGYTTWGCIDLVSASTGEMSKRYGFVFVDRDDAGNGTLTRTRKKSFWWYKKVIASNGEDLE | 3.7 h | > 8 h | 1.88 h | 1.81 ± 0.14 h |  | 2.47 h | 4.65 ± 0.73 h |  |  |  | 4.04 ± 0.89 h | 
